{"source": "patent US20250289891A1", "about": "(AUTOLUS, published 2025)", "binders": {"B1": {"name": "Anti-FcRH5 VHH-CAR 66831 (VHH of AU60462), on Jurkat T cells (protein, not shown: large carriers)", "chain": "QVQLQESGGGLVQAGGSLRLSCTASGRTSSRAAMGWFRQAPGKEREFVAVISWSGGTTAYANSVKGRFTISRDNAKNTLYLQMNSLKPEDTAVYYCAAARIFTTARNDYDHWGQGTQVTVS"}, "B2": {"name": "Anti-FcRH5 VHH-CAR 66836 (VHH of AU60467), on Jurkat T cells (protein, not shown: large carriers)", "chain": "QVQLQESGGGLVQAGDSLRLSCAASGRTFDSRPMGWFRQAPGKEREFVGAVSWRGESTYYPDSVKGRFTISRDNAKRTVYLQMNSLKPEDTAVYYCAAGEPYSGTYYYRGRDYDYWGQGTQVTVS"}, "B3": {"name": "Anti-FcRH5 VHH-CAR 66825 (VHH of AU60387), on Jurkat T cells (protein, not shown: large carriers)", "chain": "QVQLQESGGGLVQAGGSLRLSCAASGRTFSTYGMGWFRQAPGKEREFVAAISRSGGATAYAASVKGRFTISRDDVKNTLYLQMNSLKPEDTAVYHCAGTRRAFSTGLRDYDYWGQGIQVTVS"}, "B4": {"name": "Anti-FcRH5 VHH-CAR 66832 (VHH of AU60463), on Jurkat T cells (protein, not shown: large carriers)", "chain": "QVQLQESGGGLVQAGDSLRLSCAYSGRTFSSYAMGWFRQAPGKERVFVAAISRIGGVTTYAESVQGRFTISRDNAKNTLYLQMNALKPEDTAVYYCAAAGLVSISTTPNDYDYWGQGTQVTVS"}, "B5": {"name": "Anti-FcRH5 VHH-CAR 66829 (VHH of AU60460), on Jurkat T cells (protein, not shown: large carriers)", "chain": "QVQLQESGGGLVQAGGSLRLSCAASGRTYNNYAMGWFRQAPGKEREFVAGISRSGGMTGYAESVKGRFTISRDNAKNMVFLQMNSLKPEDTAVYYCAAYVGGFSTARRDYSYWGQGTQVTVS"}, "B6": {"name": "Anti-FcRH5 VHH-CAR 66835 (VHH of AU60466), on Jurkat T cells (protein, not shown: large carriers)", "chain": "QVQLQQSGGGLVQAGGSLSLSCTASGRSFSNYGMGWFRQAPGKEREFVAAIGMVGGLTAYSNSAKGRFTISRDNAKNTLYLQMNSLKPEDTAVYLCAAGRRFSTSSRDYDIWGQGTQVTVS"}, "B7": {"name": "Anti-FcRH5 VHH-CAR 66823 (VHH of AU60385), on Jurkat T cells (protein, not shown: large carriers)", "chain": "QVQLQESGGGLVQAGGSLRLSCAASGRTFSTYAMAWFRQAPGKEREFVAAISGFGVVTYYADSVKGRFTISRDNAKNTLYLQMNGLKPEDTAVYYCAAGRRTSTNGGDYDYWGQGTQVTVS"}, "B8": {"name": "Anti-FcRH5 VHH-CAR 66828 (VHH of AU60390), on Jurkat T cells (protein, not shown: large carriers)", "chain": "QVQLQQSGGGLVQAGDSLRLSCAASGRTFSNSTMGWFRQAPGKERKFVAVISWSGGTYAYAESVKGRFTISRDNAKNTVYLQMNSLKPEDTAVYYCAAARKGWSTRGDDYDYWGQGTQVTVS"}, "B9": {"name": "Anti-FcRH5 VHH-Fc AU60462 (AbVec.aFcRH5.dAb-MIgG2a-Fc.Clone.E04) (Fc fusion)", "chain": "B1 chain", "notes": "VHH fused to murine IgG2a Fc; not shown: murine IgG2a Fc domain"}, "B10": {"name": "Anti-FcRH5 VHH-Fc AU60471 (AbVec.aFcRH5.dAb-MIgG2a-Fc.Clone.F12) (Fc fusion)", "chain": "QVQLQESGGGLVQAGGSLRLSCAASGSIFSINAMGWYRQAPGKQRELVAFITSGGSTNYADSVKGRFTISRDNAKNTVYLQMNSLKPEDTAVYYCNALGGFVPSYGWGQGTQVTVS", "notes": "as for B9"}, "B11": {"name": "Anti-FcRH5 VHH-Fc AU60463 (AbVec.aFcRH5.dAb-MIgG2a-Fc.Clone.E07) (Fc fusion)", "chain": "B4 chain", "notes": "not shown: murine IgG2a Fc domain"}, "B12": {"name": "Anti-FcRH5 VHH-Fc AU60369 (AbVec.aFcRH5.dAb-MIgG2a-Fc.Clone.B03) (Fc fusion)", "chain": "QVQLQESGGGLVQAGGSLRLSCAASRSSFSNNAMGWYRQVPGKQRELVAFITKGGVTDYSDSVKGRFTISKDNAKNTVYLQMNSLKPEDTAVYYCNTIPFRSAWGQGTQVTVS", "notes": "VHH fused to murine IgG2a Fc, expi-CHO, Protein A purified; not shown: murine IgG2a Fc domain"}, "B13": {"name": "Anti-FcRH5 VHH-Fc AU60460 (AbVec.aFcRH5.dAb-MIgG2a-Fc.Clone.C10) (Fc fusion)", "chain": "B5 chain", "notes": "as for B9"}, "B14": {"name": "Anti-FcRH5 VHH-Fc AU60466 (AbVec.aFcRH5.dAb-MIgG2a-Fc.Clone.F01) (Fc fusion)", "chain": "B6 chain", "notes": "as for B11"}, "B15": {"name": "Anti-FcRH5 VHH-Fc AU60470 (AbVec.aFcRH5.dAb-MIgG2a-Fc.Clone.F11) (Fc fusion)", "chain": "QVQLQESGGGLVQAEGSLRLSCAASGRTFSMYAMGWFRQAPGREREFVAAISGSARITYYGQSVKGRFTISRDNAKNTVYLQMNSLKPEDTAVYYCAASSTYTSTSGSSYNYWGQGTQVTVS", "notes": "as for B11"}, "B16": {"name": "Anti-FcRH5 VHH-Fc AU60464 (AbVec.aFcRH5.dAb-MIgG2a-Fc.Clone.E11) (Fc fusion)", "chain": "QVQLQQSGGGLVQPGGSLRLSCAAPGNIFRLNGTGWYRQAPGKQRELVAHITSGGNTDYADSVKGRFTISRDNAKNTVYLQMNSLKPEDTAVYYCNAIPFRLSWGQGTQVTVS", "notes": "as for B11"}, "B17": {"name": "Anti-FcRH5 VHH-Fc AU60385 (AbVec.aFcRH5.dAb-MIgG2a-Fc.Clone.B07 as printed in Table 3; Clone B11 in Table 9) (Fc fusion)", "chain": "B7 chain", "notes": "as for B11"}, "B18": {"name": "Anti-FcRH5 VHH-Fc AU60465 (AbVec.aFcRH5.dAb-MIgG2a-Fc.Clone.E12) (Fc fusion)", "chain": "QVQLQESGGGLVQAGGSLRLSCVVSRNIFSLNPMGWYRQAPGKQREMVAIITDGGSTNYADSVKGRFTISRDNVKNTVYLQMNALEPEDTAVYYCNRVGGLQTWAWGQGTQVTVSS", "notes": "as for B11"}, "B19": {"name": "Anti-FcRH5 VHH-Fc AU60370 (AbVec.aFcRH5.dAb-MIgG2a-Fc.Clone.B04) (Fc fusion)", "chain": "QVQLQESGGGSVQPGGSLSLSCAASGFTFSNYAMSWVRQAPGKGPEWVAVINSDGGTASSAGSVRGRFTISRDNAKNTLYLQMNRLKPEDTAVYYCAANRGFCAGVRCLEYQYWGQGTQVTVS", "notes": "as for B11"}, "B20": {"name": "Anti-FcRH5 VHH-Fc AU60382 (AbVec.aFcRH5.dAb-MIgG2a-Fc.Clone.B07) (Fc fusion)", "chain": "QVQLQESGGGLVQAGGSLIVSCAASGRTFSINAMAWFRQAPGKEREFVAAIGGSGRVSSTSYADFVKGRFTISRDNAKNTVYLRMNNLEPEDTAVYYCAARRDYLPFPPESYDYWGQGTQVTVA", "notes": "as for B11"}}}
{"molecular_target": "T1, Plate bound FcRH5 antigen (UniProt Q96RD9)", "T1 sequence (looked up)": "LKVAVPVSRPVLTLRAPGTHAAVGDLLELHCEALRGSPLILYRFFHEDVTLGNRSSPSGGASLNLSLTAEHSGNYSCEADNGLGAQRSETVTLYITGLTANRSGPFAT", "test": "cell-based or functional assay", "units": {"Nur77-mClover positive cells after 24 h 10 µg/ml (% upregulation)": "%"}}
{"binder": "B1", "Nur77-mClover positive cells after 24 h 10 µg/ml (% upregulation)": 2.59}
{"binder": "B2", "Nur77-mClover positive cells after 24 h 10 µg/ml (% upregulation)": 0.898}
{"binder": "B3", "EC50 (µg/ml) of percentage Nur77 activation by plate bound FcRH5 antigen (µg/ml FcRH5 coating)": 2.42, "Nur77-mClover positive cells after 24 h 10 µg/ml (% upregulation)": 39}
{"binder": "B4", "EC50 (µg/ml) of percentage Nur77 activation by plate bound FcRH5 antigen (µg/ml FcRH5 coating)": 2, "Nur77-mClover positive cells after 24 h 10 µg/ml (% upregulation)": 38.4}
{"binder": "B5", "EC50 (µg/ml) of percentage Nur77 activation by plate bound FcRH5 antigen (µg/ml FcRH5 coating)": 1.43, "Nur77-mClover positive cells after 24 h 10 µg/ml (% upregulation)": 44.5}
{"binder": "B6", "EC50 (µg/ml) of percentage Nur77 activation by plate bound FcRH5 antigen (µg/ml FcRH5 coating)": 0.977, "Nur77-mClover positive cells after 24 h 10 µg/ml (% upregulation)": 45.5}
{"binder": "B7", "EC50 (µg/ml) of percentage Nur77 activation by plate bound FcRH5 antigen (µg/ml FcRH5 coating)": 1.54, "Nur77-mClover positive cells after 24 h 10 µg/ml (% upregulation)": 26.5}
{"binder": "B8", "EC50 (µg/ml) of percentage Nur77 activation by plate bound FcRH5 antigen (µg/ml FcRH5 coating)": 1.8, "Nur77-mClover positive cells after 24 h 10 µg/ml (% upregulation)": 34.2}
{"molecular_target": "T2, Recombinant purified FcRH5 Ig-8 domain (UniProt Q96RD9 743-850, limits assumed)", "T2 construct": "domain: Ig8", "T2 sequence (looked up)": "T1 sequence (looked up)", "test": "SPR, Biacore 8k, VHH-mIgG2a Fc captured by anti-mouse kit on CM5, FcRH5 Ig8 as analyte (500 nM, 2-fold dilutions), 1:1 Langmuir fit, 25 C", "protocol": "Recombinant anti-FcRH5 antibodies in mouse IgG2a format were captured on flow cell 2 on a Series S CM5 chip (GE Healthcare), functionalised with anti-mouse capture kit according to manufacturer's recommendations (GE Healthcare). Antibodies were captured to a density of 160 RU using a Biacore 8k instrument. HBS-P+ buffer was used as running buffer in all experimental conditions. Recombinant purified FcRH5 Ig-8 domain at known concentrations (500 nM with 2-fold serial dilutions) used as the ‘analyte’ and injected over the respective flow cells with 150s contact time and 500s dissociation at 30 μl/minute of flow rate with a constant temperature of 25° C. In each experiment, flow cell 1 was unmodified and used for reference subtraction. A ‘0 concentration’ sensogram of buffer alone was used as a double reference subtraction to factor for drift. Data were fit to a 1:1 Langmuir binding model. Since a capture system was used, a local maximal analytical response (Rmax) parameter was used for the data fitting in each case.", "units": {"Kd": "nM", "koff": "s⁻¹", "kon": "M⁻¹ s⁻¹"}}
{"binder": "B9", "Kd": 5.8, "koff": 0.000293, "kon": 50500}
{"binder": "B10", "Kd": 0.757, "koff": 0.00025, "kon": 330000}
{"binder": "B11", "Kd": 2.99, "koff": 0.000161, "kon": 53800}
{"binder": "B12", "Kd": 4.77, "koff": 0.00246, "kon": 516000}
{"binder": "B13", "Kd": 0.669, "koff": "3.4e-05", "kon": 50800}
{"binder": "B14", "Kd": 3.14, "koff": 0.000469, "kon": 150000}
{"binder": "B15", "Kd": 0.255, "koff": "1.81e-05", "kon": 70800}
{"binder": "B16", "Kd": 4.84, "koff": 0.00289, "kon": 596000}
{"binder": "B17", "Kd": 6.56, "koff": 0.000348, "kon": 53100}
{"binder": "B18", "Kd": 4.54, "koff": 0.00306, "kon": 673000}
{"binder": "B19", "Kd": 3.64, "koff": 0.00028, "kon": 76800}
{"binder": "B20", "Kd": 4.34, "koff": 0.000515, "kon": 119000}
